From patent US20160138049A1, “OXYGEN-TOLERANT CoA-ACETYLATING [sequence] DEHYDROGENASE CONTAINING PATHWAY FOR BIOFUEL PRODUCTION” (The Regents of the University of California, priority 2013, published 2016) come the findings set out here.

Series [1] concerns CCCC(=O)SCCNC(=O)CCNC(=O)[C@H](O)C(C)(C)COP(=O)(O)OP(=O)(O)OC[C@H]1O[C@@H](n2cnc3c(N)ncnc32)[C@H](O)[C@@H]1OP(=O)(O)O. Kind of series: purified protein, by the assay type. As to conditions: other: pH 7.15, 30° C., 500 μM NADH, 1 mM DTT, acyl-CoA 0.03 mM to 2 mM.
Description: (§3) Enzyme assays were conducted by using Bio-Tek PowerWave XS microplate spectrophotometer. CoA-acylating aldehyde dehydrogenase activity was measured by the decrease of absorbance at 340 nm, corresponding to depletion of NADH. […] The addition of the acyl-CoA initiated the reaction. kcat and Km were determined by nonlinear regression fitting to Michaelis-Menten equation using graphing software Origin.
Series [2] has as its system CC(=O)SCCNC(=O)CCNC(=O)[C@H](O)C(C)(C)COP(=O)(O)OP(=O)(O)OC[C@H]1O[C@@H](n2cnc3c(N)ncnc32)[C@H](O)[C@@H]1OP(=O)(O)O. As to the kind of experiment: purified protein, by the assay type. As to conditions: other: pH 7.15, 30° C., 500 μM NADH, 1 mM DTT, acyl-CoA 0.03 mM to 2 mM.
Description: as §3
Series [3] is described as follows: CoA-acylating aldehyde dehydrogenase (PduP) assay, butyryl-CoA reduction. The class given is biochemical. As to conditions: purified under aerobic condition; 500 μM NADH, 1 mM DTT, pH 7.15, 30° C. As to the method: Protein purification was done by using His-Spin Protein miniprep purification kit from Zymo following manufacturer's manual. Overnight culture of E. coli strain BL-21(DE3) harboring different pCDF-pdup plasmid was used to inoculate fresh 20 ml LB. The newly inoculated culture was incubated at 37° C. until OD600 nm reaches 0.6 which was then induced with 1 mM IPTG. The induced cultures were then incubated overnight in 30° C. rotary shaker to allow protein expression. The cultures were then harvested by centrifugation at 4,300×g for 20 min. The pellet was then resuspended with 1 mL of Zymo His-binding buffer and mixed with 1 mL of 0.1 mm glass beads (Biospec). The sample was then homogenated using TissueLyser II (Quiagen).
(§1) Enzyme assays were conducted by using Bio-Tek PowerWave XS microplate spectrophotometer. CoA-acylating aldehyde dehydrogenase activity was measured by the decrease of absorbance at 340 nm, corresponding to depletion of NADH. […] For determining specific activity for other chain length acyl-CoA, 500 μM was used. The mixture excluding acyl-CoA was incubated for 5 minutes at 30° C. The addition of the acyl-CoA initiated the reaction. kcat and Km were determined by nonlinear regression fitting to Michaelis-Menten equation using graphing software Origin.
(§2) To characterize these PduP homologues, plasmids harboring individual pduP genes were constructed with a poly-His6 tag (plasmids pCDF-pduP_ahyd, pCDF-pdup_kpne, pCDF-pdup_lbre, pCDF-pdup_lmon, pCDF-pdup_sent, and pCDF-pdup_pgin). PduP homologues were then purified under aerobic condition without cleaving off His tags. The activities of the enzymes were determined using acyl-CoA with different chain lengths, and the disappearance of NADH was monitored.
The efficiency of these PduP homologues were assessed.

Series [4] can be described thus: Substrate chain length specificity of PduP. As to conditions: acyl-CoA chain lengths C2 to C12. It counts as biochemical. As to the method:
FIG. 3A-B Substrate chain length specificity of CoA-acylating aldehyde dehydrogenases, PduP. A) Specific activity of different PduP (pmol min^−1 mg^−1). B) Relative activity of PduP. Specific activity was determined with substrate concentration of 1 mM acyl-CoA, 500 uM NADH, 1 mM DTT in 50 mM potassium phosphate buffer at pH 7.15 at 30° C.
as §1, §2

As usually defined, the Km is the substrate concentration at which the rate is half of its maximum.

As for “Salmonella enterica PduP, CoA-acylating propionaldehyde dehydrogenase (PduP_S.ent, AAD39015, SEQ ID NO:33 and 34), poly-His6 tagged (Salmonella enterica subsp. enterica serovar Typhimurium str. LT2)”, the Km in series [1] worked out at 87.0 ± 24.8 µM; in series [2], 342.1 ± 94.8 µM.
The corresponding values for “Klebsiella pneumoniae PduP, CoA-acylating propionaldehyde dehydrogenase (PduP_K.pne, YP_001336844, SEQ ID NO:45 and 46), poly-His6 tagged (Klebsiella pneumoniae subsp. pneumoniae NTUH-K2044)” are 56.0 ± 25.9 µM and 181.4 ± 25.1 µM.
In the same order, the values of “Porphyromonas gingivalis PduP, CoA-acylating propionaldehyde dehydrogenase (PduP_P.gin, YP_001928839, SEQ ID NO:51 and 52), poly-His6 tagged (Porphyromonas gingivalis ATCC 33277)” are 256.0 ± 40.5 µM and 75.9 ± 25.1 µM.
Regarding “Listeria monocytigenes PduP, CoA-acylating propionaldehyde dehydrogenase (PduP_L.mon, NP_464690, SEQ ID NO:49 and 50), poly-His6 tagged (Listeria monocytogenes EGD-e)”, the Km in series [1] turned out to be 71.7 ± 20.3 µM; in series [2], 92.6 ± 20.1 µM.

B1: P. gin: PduP homologue from Porphyromonas gingivalis, YP_001928839; SEQ ID NO:51 and 52 (protein, listed as Porphyromonas gingivalis)
chain: MEIKEMVSLARKAQKEYQATHNQEAVDNICRAAAKVIYENAAILAREAVDETGMGVYEHKVAKNQGKSKGVWYNLHNKKSVGILNIDERTGMIEIAKPIGVVGAVTPTTNPIVTPMSNIIFALKTCNAIIIAPHPRSKKCSAHAVRLIKEAIAPFNVPEGMVQIIEEPSIEKTQELMGAVDVVVATGGMGMVKSAYSSGKPSFGVGAGNVQVIVDSNIDFEAAAEKIITGRAFDNGIICSGEQSIIYNEADKEAVFTAFRNHGAYFCDEAEGDRARAAIFENGAIAKDVVGQSVAFIAKKANINIPEGTRILVVEARGVGAEDVICKEKMCPVMCALSYKHFEEGVEIARTNLANEGNGHTCAIHSNNQAHIILAGSELTVSRIVVNAPSATTAGGHIQNGLAVTNTLGCGSWGNNSISENFTYKHLLNISRIAPLNSSIHIPDDKEIWEL
Turning to B1, the “Specific activity for butyryl-CoA reduction” value in series [3] was 0.49 ± 0.2 µmol/min/mg. For the same molecule, in series [4], the “Acyl-CoA substrate favoured (highest specific activity)” value (“Acyl-CoA substrate favoured” below) was “dodecanoyl-CoA”.

B2: A. hyd: PduP homologue from Aeromonas hydrophila, YP_855873; SEQ ID NO:43 and 44 (protein, listed as Aeromonas hydrophila)
chain: MLSRQNARELVRNAKQAQVIMATFSQQKIDAIVKNVAEEAARHAETLAKMAAEETGFGNWQDKVLKNRFASLHVYDAIKEMKTVGIIHDDQAKKVMDVGVPLGVICALVPSTNPTSTIFYKTLIALKAGNAIIFSPHPGARQCSWKAIEIVKRAAEAAGAPAGIVDGVTQLTLEATSELMHSKDVSLILATGGEGMVRAAYASGTPTISGGPGNGPAFIERSADIHQAVKDIITSKTFDNGVICASEQSIIVERCIYDEVHRELAAQGAYFMNEDEAARMAALLLRPNGTINPKVVGKTALHLSQLAGFSVPPSTRVLVAEQTTVSHSNPYSREKLCPVLGLYVEEEWRAACHRVVELLTNEGLGHTLVIHTRNQDVIRQFSLEKPVNRILINTPAALGGIGATTNLTPALTLGCGAVGGGSSSDNVGPMNLLNIRKVGYGVRTIEELRAPIQPVAVQPASAAPTAPQPCSILDDARFSAPAPACHSADDRFAGASAEVGGEISEQNVERVIRQVLERLGK
B2: the “Specific activity for butyryl-CoA reduction” value in series [3] worked out at 1.7 ± 0.6 µmol/min/mg.

B3: S. ent: CoA-acylating propionaldehyde dehydrogenase (PduP) from Salmonella enterica, AAD39015; SEQ ID NO:33 and 34 (protein, listed as Salmonella enterica)
chain: MNTSELETLIRTILSEQLTTPAQTPVQPQGKGIFQSVSEAIDAAHQAFLRYQQCPLKTRSAIISAMRQELTPLLAPLAEESANETGMGNKEDKFLKNKAALDNTPGVEDLTTTALTGDGGMVLFEYSPFGVIGSVAPSTNPTETIINNSISMLAAGNSIYFSPHPGAKKVSLKLISLIEEIAFRCCGIRNLVVTVAEPTFEATQQMMAHPRIAVLAITGGPGIVAMGMKSGKKVIGAGAGNPPCIVDETADLVKAAEDIINGASFDYNLPCIAEKSLIVVESVAERLVQQMQTFGALLLSPADTDKLRAVCLPEGQANKKLVGKSPSAMLEAAGIAVPAKAPRLLIALVNADDPWVTSEQLMPMLPVVKVSDFDSALALALKVEEGLHHTAIMHSQNVSRLNLAARTLQTSIFVKNGPSYAGIGVGGEGFTTFTIATPTGEGTTSARTFARSRRCVLTNGFSIR
With B3, the “Specific activity for butyryl-CoA reduction” value in series [3] was determined as 27 ± 14 µmol/min/mg. Moreover, the “Acyl-CoA substrate favoured” value in series [4] is recorded as “highest for propionyl-CoA reduction”.

B4: L. mon: PduP homologue from Listeria monocytigenes, NP_464690; SEQ ID NO:49 and 50 (protein)
chain: MESLELEKLVKKVLLEKLAEQKGIPVKTMTKGAKSGVFDTVDEAVQAAVIAQNSYKEKSLEERRNVVKAIREALYPEIESIAARAVAETGMGNVADKILKNTLAIEKTPGVEDLYTEVATGDNGMTLYELSPYGVIGAVAPSTNPTETLICNTIGMLAAGNAVFYSPHPGAKNISLWLIEKLNTIVRESCGVDNLVVTVEKPSIQAAQEMMNHPKVPLLVITGGPGVVLQAMQSGKKVIGAGAGNPPSIVDETANIEKAAADIVDGASFDHNILCIAEKSVVAVDSIADFLMFQMEKNGALHVTNPSDIQKLEKVAVTDKGVTNKKLVGKSASEILKEAGIACDFSPRLIIVETEKTHPFATVELLMPIVPVVRVPNFEEALEVAIELEQGLHHTATMHSQNISRLNKAARDMQTSIFVKNGPSFAGLGFRGEGSTTFTIATPTGEGTTTARHFARRRRCVLTDGFSIR
modifications: Listeria monocytogenes
Regarding B4, in series [3], the “Specific activity for butyryl-CoA reduction” value stood at 17 ± 2 µmol/min/mg. For the same molecule, the “Acyl-CoA substrate favoured” value in series [4] is given as “highest for propionyl-CoA reduction”.
